Test results published in the supplement of paper PMC9732359.
± gives the uncertainty stated by the source.

Experiment: protein stability index of a GFP-peptide fusion (yeast GPS) (PSI 1-4); higher = more stable; sorted into four equal gates, so the index is relative within each strain
Summary of the method: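 The protein stability index combines read frequencies across sorting gates, each weighted by its gate number and then summed. To obtain those frequencies, a pooled yeast library of GFP fusions to tiled 17-residue yeast protein peptides, on a plasmid also expressing Cherry, was grown to mid-log phase in leucine-free medium. The cells were sorted into four equal gates by GFP/Cherry ratio before plasmid amplification by PCR and Illumina sequencing.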

Sequence | protein stability index (doa10∆) | protein stability index (pdr5∆) | protein stability index (san1∆) | protein stability index (ubr1∆)
QENSSKIITLDLSNYAE [SMC1] | 3.13 ± 0.1 | 3.34 ± 0.053 | 3.1 ± 0.054 | 3.13 ± 0.044
NQSNLNGGNNTQQPGTN [SNF2] | 2.76 ± 0.073 | 3.1 ± 0.075 | 3.08 ± 0.062 | 3.04 ± 0.056
TITTILILGLNTSIAQF [YML103C/NUP188] | 1.83 ± 0.039 | 1.67 ± 0.045 | 2.32 ± 0.076 | 2.28 ± 0.04
MNVTPLDELQWKSPEWI [MED6] | 3.1 ± 0.13 | 3.14 ± 0.1 | 3.19 ± 0.061 | 3.37 ± 0.21
KPPTQKTDTKVSFRTHN [SRP21] | 2.52 ± 0.078 | 2.82 ± 0.072 | 2.57 ± 0.07 | 2.7 ± 0.065
NMFELAQQLVGVYKRDN [SMC4] | 1.08 ± 0.11 | 1.61 ± 0.12 | 1.61 ± 0.16 | 1.37 ± 0.13
LIALSLIMALLQFRPAP [SMC2] | 1.62 ± 0.029 | 1.3 ± 0.026 | 1.36 ± 0.048 | 1.3 ± 0.025
TGWHVDQAIVTETKRLV [DIB1] | 1.88 ± 0.074 | 2.24 ± 0.075 | 2.08 ± 0.25 | 1.9 ± 0.077
NLRHERNSLETKLTTCK [YIL149C/MLP2] | 2.83 ± 0.13 | 2.79 ± 0.14 | 2.93 ± 0.12 | 3.04 ± 0.077
TLIVVPFNQGSKQDVEA [FAS2] | 2.87 ± 0.12 | 3.2 ± 0.12 | 3.13 ± 0.09 | 3.3 ± 0.12
TFVERLPNETINDRNDR [DIS3] | – | – | – | 2.28 ± 0.11
QLTSLEKDCSLRAIEKN [YIL149C/MLP2] | 2.58 ± 0.068 | 2.8 ± 0.064 | 2.98 ± 0.058 | 3.06 ± 0.047
DKNSGVKSEVDVQVDAE [ITC1] | 2.1 ± 0.064 | 2.15 ± 0.073 | 1.79 ± 0.12 | 2.97 ± 0.065
HLRYQPDGVVVHRDDPA [SNF6] | 2.91 ± 0.12 | 3.29 ± 0.1 | 2.94 ± 0.082 | 3.28 ± 0.08
YQWRDLIARRDDESPRF [RRP6] | 3.23 ± 0.077 | 3.42 ± 0.067 | 3.24 ± 0.057 | 3.26 ± 0.068
GVHTGQFIYAGKKASLN [RPL2A] | – | 3.51 ± 0.19 | 3.15 ± 0.1 | 3.4 ± 0.12
SALTSPTDSSKILQKRS [SIR3] | 2.99 ± 0.053 | 3.12 ± 0.054 | 2.92 ± 0.047 | 3.04 ± 0.039
GRHVATCSSDQHIKVFK [YGL100W/SEH1] | 2.71 ± 0.066 | 2.76 ± 0.059 | 2.57 ± 0.08 | 2.75 ± 0.052
LRGSLLSRKPSDNKKRS [RPC82] | 2.96 ± 0.13 | 3.6 ± 0.14 | 3.27 ± 0.1 | 3.01 ± 0.13
IMERIKSSLSLRDHALS [ITC1] | 2.24 ± 0.12 | 2.53 ± 0.053 | 2.7 ± 0.18 | 2.65 ± 0.06
QIFKVAGENAPSIVFID [RPT2] | 1.84 ± 0.098 | 1.2 ± 0.059 | 1.31 ± 0.13 | 1.33 ± 0.066
TVKLYLPEILNVLCVNI [ECM29] | 1.46 ± 0.047 | 1.49 ± 0.045 | 1.5 ± 0.074 | 1.42 ± 0.045
IDEVFSWYLNTFDGIRM [GRR1] | 2.42 ± 0.049 | 1.83 ± 0.039 | 2.14 ± 0.062 | 1.88 ± 0.039
THNFKLSGVSNSMDMVD [RGR1] | 3.09 ± 0.068 | 3 ± 0.074 | 2.93 ± 0.06 | 3.08 ± 0.062
LIARRDDESPRFVMPNQ [RRP6] | 3.27 ± 0.082 | 3.32 ± 0.07 | 3.21 ± 0.081 | 3.21 ± 0.061
ILGKNFDSVIVENLTVA [SMC1] | 2.48 ± 0.08 | 2.15 ± 0.083 | 2.11 ± 0.075 | 2.19 ± 0.054
